# Results: PMC9500918, “Extended N-Terminal Acetyltransferase Naa50 in Filamentous Fungi Adds to Naa50 Diversity” (International Journal of Molecular Sciences, 2022)
# Experiments:
# Assay in all cases: colorimetric DTNB acetylation assay, Michaelis-Menten
# Settings in all cases: 1.5 mM MVNALE peptide, 30 °C, reaction buffer pH 7.5
# [1] = substrate: CC(=O)SCCNC(=O)CCNC(=O)[C@H](O)C(C)(C)COP(=O)(O)OP(=O)(O)OC[C@H]1O[C@@H](n2cnc3c(N)ncnc32)[C@H](O)[C@@H]1OP(=O)(O)O; format: biochemical, Thermochaetoides thermophila
# [2] = substrate: CC(=O)SCCNC(=O)CCNC(=O)[C@H](O)C(C)(C)COP(=O)(O)OP(=O)(O)OC[C@H]1O[C@@H](n2cnc3c(N)ncnc32)[C@H](O)[C@@H]1OP(=O)(O)O; format: biochemical, Thermochaetoides thermophila; remark: listed apart in the source
# Source text: colorimetric DTNB acetylation assay, Michaelis-Menten on CtNaa50_1-289 (ΔC)
# [3] = substrate: CC(=O)SCCNC(=O)CCNC(=O)[C@H](O)C(C)(C)COP(=O)(O)OP(=O)(O)OC[C@H]1O[C@@H](n2cnc3c(N)ncnc32)[C@H](O)[C@@H]1OP(=O)(O)O; format: biochemical, Thermochaetoides thermophila; remark: listed apart in the source
# Source text: colorimetric DTNB acetylation assay, Michaelis-Menten on CtNaa50_82-445 (ΔN)
# [4] = substrate: CC(=O)SCCNC(=O)CCNC(=O)[C@H](O)C(C)(C)COP(=O)(O)OP(=O)(O)OC[C@H]1O[C@@H](n2cnc3c(N)ncnc32)[C@H](O)[C@@H]1OP(=O)(O)O; format: biochemical, Neurospora crassa
# Source text: colorimetric DTNB acetylation assay, Michaelis-Menten on NcNaa50_93-287 (GNAT)
# [5] = substrate: CC(=O)SCCNC(=O)CCNC(=O)[C@H](O)C(C)(C)COP(=O)(O)OP(=O)(O)OC[C@H]1O[C@@H](n2cnc3c(N)ncnc32)[C@H](O)[C@@H]1OP(=O)(O)O; format: biochemical, Thermochaetoides thermophila; remark: listed apart in the source
# Source text: colorimetric DTNB acetylation assay, Michaelis-Menten on CtNaa50_82-289 (GNAT)
protein,measurement,setting,value
"CtNaa50_1-289/CtDLC1 complex (Thermochaetoides thermophila DSM 1495) (protein, CtNaa50 1-289 (S. cerevisiae, His-tag cut by TEV) co-purified with untagged CtDLC1 (E. coli); with putative dynein light chain 1 protein) MSASRQASIKSFFQPRGLPTHNTTFSSKTPPTDRATQTTTPPPVPPPAPAPPSHQPAAPEPITISVRLPPGGVPNLPSPPSLPSGASIVPLAQEHIPALRRINSLLLPVAYPDSFYHKALDPLASGLFSRAILWQDTNADPPKVVGGLICRLEPNPFLSVTGEPTPVQLPADQPQRAPQAPKDTPFHAIYIQSLALLSPYRSLGLAAAALDHIIATAAVLPAAGSNIDARTIYAHVWTENEEGLKWYESRGFVKEGGEPVKGYYFKLRPDTAWIVRRHIGESAKLNDVV",Km,[1],30.4 ± 6.3 µM
same,kcat,[1],21.4 ± 1.2 min⁻¹
"CtNaa50_1-289 (ΔC) (Thermochaetoides thermophila DSM 1495) (protein, C-terminal deletion, residues 1-289, N-terminal His-tag removed by TEV, S. cerevisiae) MSASRQASIKSFFQPRGLPTHNTTFSSKTPPTDRATQTTTPPPVPPPAPAPPSHQPAAPEPITISVRLPPGGVPNLPSPPSLPSGASIVPLAQEHIPALRRINSLLLPVAYPDSFYHKALDPLASGLFSRAILWQDTNADPPKVVGGLICRLEPNPFLSVTGEPTPVQLPADQPQRAPQAPKDTPFHAIYIQSLALLSPYRSLGLAAAALDHIIATAAVLPAAGSNIDARTIYAHVWTENEEGLKWYESRGFVKEGGEPVKGYYFKLRPDTAWIVRRHIGESAKLNDVV",Km,[2],31.9 ± 4.4 µM
same,kcat,[2],0.272 ± 0.01 s⁻¹
same,kcat/Km,[2],8500 ± 1170 M⁻¹ s⁻¹
"CtNaa50_82-445 (ΔN) (Thermochaetoides thermophila DSM 1495) (protein, N-terminal deletion, residues 82-445, E. coli) LPSGASIVPLAQEHIPALRRINSLLLPVAYPDSFYHKALDPLASGLFSRAILWQDTNADPPKVVGGLICRLEPNPFLSVTGEPTPVQLPADQPQRAPQAPKDTPFHAIYIQSLALLSPYRSLGLAAAALDHIIATAAVLPAAGSNIDARTIYAHVWTENEEGLKWYESRGFVKEGGEPVKGYYFKLRPDTAWIVRRHIGESAKLNDVVSQPQPQPQQQLQQQPAVDIAPTATSVLAAAVNLPPITSTPPPPSTGSKLPTSNTSTLASRPPPPLRSTSSSTSSATSLSYQNTRPPTEWNDIPPDMVAGPPIAARGRRVTAAAASDPAANGCSGTGSGASSRSASAAAGTGKKRKGRDYPTAAFGN",Km,[3],41.2 ± 6.1 µM
same,kcat,[3],0.398 ± 0.0167 s⁻¹
same,kcat/Km,[3],9670 ± 1500 M⁻¹ s⁻¹
"NcNaa50_93-287 (GNAT) (Neurospora crassa OR74A) (protein, GNAT domain, residues 93-287, C-terminal His6, E. coli; full-length 494 residues) SQANIVAVAEHHIAALRRINSLLLQVAYPDAFYAKVLEPLASGLFSRVILWSDDPTSEPKVIGGVVCRLEPNPFLDPNGQPQAPRIQQNQPGPSAPIDYPYHAIYIQSLALLSPYRSLGLAAAALEHIIASASILPAAGSTINVRTIYAHVWTENEEGLQWYGQRGFRTEGRDPVRGYYFKLRPDTAWIVRRDIG",Km,[4],146.9 ± 12.1 µM
same,kcat,[4],1.6 ± 0.05 s⁻¹
same,kcat/Km,[4],10800 ± 1000 M⁻¹ s⁻¹
"CtNaa50_82-289 (GNAT) (Thermochaetoides thermophila DSM 1495) (protein, GNAT domain, residues 82-289, C-terminal His6 kept, E. coli; full-length 445 residues; one molecule per asymmetric unit) LPSGASIVPLAQEHIPALRRINSLLLPVAYPDSFYHKALDPLASGLFSRAILWQDTNADPPKVVGGLICRLEPNPFLSVTGEPTPVQLPADQPQRAPQAPKDTPFHAIYIQSLALLSPYRSLGLAAAALDHIIATAAVLPAAGSNIDARTIYAHVWTENEEGLKWYESRGFVKEGGEPVKGYYFKLRPDTAWIVRRHIGESAKLNDVV",Km,[5],52.7 ± 8.6 µM
same,kcat,[5],0.607 ± 0.03 s⁻¹
same,kcat/Km,[5],11500 ± 2000 M⁻¹ s⁻¹
"CtNaa50_82-289 (GNAT) (Thermochaetoides thermophila DSM 1495; Y190F) (protein, GNAT domain, residues 82-289, C-terminal His6 kept, E. coli; full-length 445 residues; one molecule per asymmetric unit) LPSGASIVPLAQEHIPALRRINSLLLPVAYPDSFYHKALDPLASGLFSRAILWQDTNADPPKVVGGLICRLEPNPFLSVTGEPTPVQLPADQPQRAPQAPKDTPFHAIFIQSLALLSPYRSLGLAAAALDHIIATAAVLPAAGSNIDARTIYAHVWTENEEGLKWYESRGFVKEGGEPVKGYYFKLRPDTAWIVRRHIGESAKLNDVV",Km,[5],22.0 ± 4.0 µM
same,kcat,[5],0.0933 ± 0.005 s⁻¹
same,kcat/Km,[5],4330 ± 833 M⁻¹ s⁻¹
"CtNaa50_82-289 (GNAT) (Thermochaetoides thermophila DSM 1495; H235A) (protein, GNAT domain, residues 82-289, C-terminal His6 kept, E. coli; full-length 445 residues; one molecule per asymmetric unit) LPSGASIVPLAQEHIPALRRINSLLLPVAYPDSFYHKALDPLASGLFSRAILWQDTNADPPKVVGGLICRLEPNPFLSVTGEPTPVQLPADQPQRAPQAPKDTPFHAIYIQSLALLSPYRSLGLAAAALDHIIATAAVLPAAGSNIDARTIYAAVWTENEEGLKWYESRGFVKEGGEPVKGYYFKLRPDTAWIVRRHIGESAKLNDVV",Km,[5],15.3 ± 3.1 µM
same,kcat,[5],0.0233 ± 0.00167 s⁻¹
same,kcat/Km,[5],1500 ± 333 M⁻¹ s⁻¹
